Laboratory results as given in US20120202890A1, “POLYMER-CARBOHYDRATE-LIPID CONJUGATES” (priority 2011, published 2012).
Ends that are not written are not given here.

What was measured:
[1] = Stability of peptide solution by HPLC assay; assay type: physicochemical
Description: Stability experiment was carried out by HPLC assay and a custom synthesized thermolabile peptide with the following sequence was used as the model compound: […] The peptide was added to selected media and sonicated for 10 minutes. The sample solutions were filtered through passed through 0.22-μm pore-size filter to remove dust particles before the HPLC assay. A Simadzu 10avp chromatography system with a Kinetex C18 (2.6 μm, 100×4.6 mm i.d.) column (Phenomenex, Torrance, Calif.) were used. The solutions were kept at 25° C. in the Autosampler during the assay and the mobile phase consisted of 0.1% of trifluoroacetic acid and acetonitrile mixture (v/v, 80/20) with a flow rate of 1.0 mL/min. The peptide peak was monitored at 210 nm and quantitated using external standard sets of the peptide.
The plots were the % recovery vs. time.

[2] = Physical state of Propofol formulations with PEG-carbohydrate-lipid (solution, suspension or emulsion); assay type: physicochemical
Description: A propofol solution suitable for intravenous delivery is prepared as follows. 5% (w/v) of OAPDL-PEG in Saline was added to a vessel equipped with a mixer propeller and 2% (w/v) of Propofol was added with constant mixing at ambient room temperature. Mixing was continued until the drug was visually dispersed. Equal volume of Saline was added to the vessel with adequate mixing. Mixing continued for another 30 minutes or until a homogenous solution was achieved. A sample formulation is described in Table 15.
In Example 16, less concentrated or less purified PEG-sugar-lipid will create a suspension instead of an aqueous solution. For instance, the final concentration of the PEG-carbohydrate-lipid is less than 1.5% (w/v), it will form a suspension. Similarly when the oligomer purity is 80% or less, regardless the concentration of the PEG-carbohydrate-lipid, an emulsified solution will be observed instead of a transparent solution.
Propofol as the active agent was formulated with various polymer-lipid-carbohydrate conjugates described in the present invention. At a lower of the polymer-lipid-carbohydrate conjugate concentration, i.e., OAPDL-11 (<1.5%), the formulation is a microemulsion and at a higher OAPDL-11 concentration (≧2.2%), it is a true solution.
A solution is defined as a homogenous mixture of substances with variable composition. […]

[3] = Body weight change as evidence of renal toxicity of cisplatin, intravenous dosing; assay type: in vivo, mice (B6D2F1); settings: animal experiments, mice
Description: Groups of four each of mixed gender mice (B6D2F1), […] and weights of 22 to 30 grams) were studied in duplicate. Each mouse was administrated cisplatin intravenously at a dose of 10 mg/kg (Table 16) and Intraperitoneally at a dose of 15 mg/kg (Table 17). The changes in body weights observed can be used as a direct evident in the renal toxicity effects.

Substance	peptide degradation ([1]; in a 50 mM of phosphate buffer, in 24 hours)	peptide still remaining ([1]; in a 2% of PEG-carbohydrate-lipid, after 24 hours)	physical state of Propofol formulation ([2]; higher OAPDL-11 concentration (≧2.2%))	physical state of Propofol formulation ([2]; lower OAPDL-11 concentration (<1.5%))	intravenous hydration effect for reducing renal toxicity of cisplatin [3]
FPKLSHGCNKHSRKHPYMTF [peptide, custom synthesized thermolabile peptide used as the model compound]	degraded significantly	more than 97%			
oleoyi-N-(3-aminopropyl)propane-1,3-diamine-Undecaethylene glycol methyl ether Lactobionate [OAPDL-11]			true solution	microemulsion	better than free sugars
